Assay results taken from the Human Domainome abundance scans (Beltran et al. 2025).
± gives the uncertainty stated by the source.

B1: Neutrophil cytosol factor 2, residues 456 to 514; numbered along this chain, P19878 (parent)
chain: LKKGSQVEALFSYEATQPEDLEFQEGDIILVLSKVNEEWLEGECKGKVGIFPKVFVEDC

Variants of: B1
Test: abundance fitness (aPCA) (normalised: wild type 0, dead -1); higher = more abundant; growth selection in yeast, the domain comes from the species named
Details: Homo sapiens

Variant | abundance fitness
LKKGSQVEALFSYEATQPEDLEFQEGDIILVLSKVNEEWLENECKGKVGIFPKVFVEDC | -0.484 ± 0.15
LKKGSQVEALFSYEATQPEDLEFQEGDIILVLSKVNEEWLEWECKGKVGIFPKVFVEDC | -0.322 ± 0.17
LKKGSQVEALFSYEATQPEDLEFQEGDIILVLSKVNEEWLEAECKGKVGIFPKVFVEDC | -0.146 ± 0.13
LKKGSQVEALFSYEATQPEDLEFQEGDIILVLSKVNEEWLEKECKGKVGIFPKVFVEDC | -0.768 ± 0.35
LKKGSQVEALFSYEATQPEDLEFQEGDIILVLSKVNEEWLELECKGKVGIFPKVFVEDC | -0.569 ± 0.14
LKKGSQVEALFSYEATQPEDLEFQEGDIILVLSKVNEEWLEMECKGKVGIFPKVFVEDC | -0.954 ± 0.31
LKKGSQVEALFSYEATQPEDLEFQEGDIILVLSKVNEEWLEEECKGKVGIFPKVFVEDC | -0.237 ± 0.21
LKKGSQVEALFSYEATQPEDLEFQEGDIILVLSKVNEEWLEIECKGKVGIFPKVFVEDC | -0.473 ± 0.15
LKKGSQVEALFSYEATQPEDLEFQEGDIILVLSKVNEEWLEQECKGKVGIFPKVFVEDC | -0.637 ± 0.28
LKKGSQVEALFSYEATQPEDLEFQEGDIILVLSKVNEEWLEPECKGKVGIFPKVFVEDC | -0.375 ± 0.18
LKKGSQVEALFSYEATQPEDLEFQEGDIILVLSKVNEEWLEFECKGKVGIFPKVFVEDC | -0.509 ± 0.12
LKKGSQVEALFSYEATQPEDLEFQEGDIILVLSKVNEEWLERECKGKVGIFPKVFVEDC | -0.952 ± 0.19
LKKGSQVEALFSYEATQPEDLEFQEGDIILVLSKVNEEWLEYECKGKVGIFPKVFVEDC | -0.466 ± 0.16
LKKGSQVEALFSYEATQPEDLEFQEGDIILVLSKVNEEWLECECKGKVGIFPKVFVEDC | -0.782 ± 0.15
LKKGSQVEALFSYEATQPEDLEFQEGDIILVLSKVNEEWLETECKGKVGIFPKVFVEDC | -0.876 ± 0.24
LKKGSQVEALFSYEATQPEDLEFQEGDIILVLSKVNEEWLEDECKGKVGIFPKVFVEDC | -0.803 ± 0.17
LKKGSQVEALFSYEATQPEDLEFQEGDIILVLSKVNEEWLEVECKGKVGIFPKVFVEDC | -0.748 ± 0.16
LKKGSQVEALFSYEATQPEDLEFQEGDIILVLSKVNEEWLEGWCKGKVGIFPKVFVEDC | -0.435 ± 0.32
LKKGSQVEALFSYEATQPEDLEFQEGDIILVLSKVNEEWLEGNCKGKVGIFPKVFVEDC | -0.758 ± 0.22
LKKGSQVEALFSYEATQPEDLEFQEGDIILVLSKVNEEWLEGHCKGKVGIFPKVFVEDC | -0.314 ± 0.16
LKKGSQVEALFSYEATQPEDLEFQEGDIILVLSKVNEEWLEGGCKGKVGIFPKVFVEDC | -0.152 ± 0.11
LKKGSQVEALFSYEATQPEDLEFQEGDIILVLSKVNEEWLEGPCKGKVGIFPKVFVEDC | -0.818 ± 0.26
LKKGSQVEALFSYEATQPEDLEFQEGDIILVLSKVNEEWLEGCCKGKVGIFPKVFVEDC | -0.685 ± 0.17

Variant | abundance fitness
LKKGSQVEALFSYEATQPEDLEFQEGDIILVLSKVNEEWLEGFCKGKVGIFPKVFVEDC | -0.324 ± 0.1
LKKGSQVEALFSYEATQPEDLEFQEGDIILVLSKVNEEWLEGACKGKVGIFPKVFVEDC | -0.035 ± 0.17
LKKGSQVEALFSYEATQPEDLEFQEGDIILVLSKVNEEWLEGSCKGKVGIFPKVFVEDC | 0.025 ± 0.076
LKKGSQVEALFSYEATQPEDLEFQEGDIILVLSKVNEEWLEGICKGKVGIFPKVFVEDC | -0.567 ± 0.13
LKKGSQVEALFSYEATQPEDLEFQEGDIILVLSKVNEEWLEGVCKGKVGIFPKVFVEDC | -0.654 ± 0.15
LKKGSQVEALFSYEATQPEDLEFQEGDIILVLSKVNEEWLEGLCKGKVGIFPKVFVEDC | -0.487 ± 0.15
LKKGSQVEALFSYEATQPEDLEFQEGDIILVLSKVNEEWLEGRCKGKVGIFPKVFVEDC | -0.521 ± 0.15
LKKGSQVEALFSYEATQPEDLEFQEGDIILVLSKVNEEWLEGTCKGKVGIFPKVFVEDC | -0.163 ± 0.11
LKKGSQVEALFSYEATQPEDLEFQEGDIILVLSKVNEEWLEGMCKGKVGIFPKVFVEDC | -0.009 ± 0.17
LKKGSQVEALFSYEATQPEDLEFQEGDIILVLSKVNEEWLEGKCKGKVGIFPKVFVEDC | -0.235 ± 0.24
LKKGSQVEALFSYEATQPEDLEFQEGDIILVLSKVNEEWLEGQCKGKVGIFPKVFVEDC | -0.078 ± 0.23
LKKGSQVEALFSYEATQPEDLEFQEGDIILVLSKVNEEWLYGECKGKVGIFPKVFVEDC | 0.47 ± 0.079
LKKGSQVEALFSYEATQPEDLEFQEGDIILVLSKVNEEWLNGECKGKVGIFPKVFVEDC | -0.635 ± 0.14
LKKGSQVEALFSYEATQPEDLEFQEGDIILVLSKVNEEWLMGECKGKVGIFPKVFVEDC | 0.275 ± 0.13
LKKGSQVEALFSYEATQPEDLEFQEGDIILVLSKVNEEWLKGECKGKVGIFPKVFVEDC | 0.367 ± 0.1
LKKGSQVEALFSYEATQPEDLEFQEGDIILVLSKVNEEWLGGECKGKVGIFPKVFVEDC | -0.157 ± 0.1
LKKGSQVEALFSYEATQPEDLEFQEGDIILVLSKVNEEWLRGECKGKVGIFPKVFVEDC | 0.131 ± 0.083
LKKGSQVEALFSYEATQPEDLEFQEGDIILVLSKVNEEWLTGECKGKVGIFPKVFVEDC | -0.527 ± 0.17
LKKGSQVEALFSYEATQPEDLEFQEGDIILVLSKVNEEWLIGECKGKVGIFPKVFVEDC | 0.175 ± 0.087
LKKGSQVEALFSYEATQPEDLEFQEGDIILVLSKVNEEWLLGECKGKVGIFPKVFVEDC | 0.275 ± 0.083
LKKGSQVEALFSYEATQPEDLEFQEGDIILVLSKVNEEWLSGECKGKVGIFPKVFVEDC | -0.28 ± 0.1
LKKGSQVEALFSYEATQPEDLEFQEGDIILVLSKVNEEWLVGECKGKVGIFPKVFVEDC | -0.02 ± 0.091
LKKGSQVEALFSYEATQPEDLEFQEGDIILVLSKVNEEWLHGECKGKVGIFPKVFVEDC | -0.682 ± 0.27

Variant | abundance fitness
LKKGSQVEALFSYEATQPEDLEFQEGDIILVLSKVNEEWLQGECKGKVGIFPKVFVEDC | 0.238 ± 0.3
LKKGSQVEALFSYEATQPEDLEFQEGDIILVLSKVNEEWLFGECKGKVGIFPKVFVEDC | 0.248 ± 0.083
LKKGSQVEALFSYEATQPEDLEFQEGDIILVLSKVNEEWLAGECKGKVGIFPKVFVEDC | -0.394 ± 0.14
LKKGSQVEALFSYEATQPEDLEFQEGDIILVLSKVNEEWLCGECKGKVGIFPKVFVEDC | 0.14 ± 0.095
LKKGSQVEALFSYEATQPEDLEFQEGDIILVLSKVNEEWLWGECKGKVGIFPKVFVEDC | -0.267 ± 0.23
LKKGSQVEALFSYEATQPEDLEFQEGDIILVLSKVNEEWLEGEAKGKVGIFPKVFVEDC | -0.241 ± 0.13
LKKGSQVEALFSYEATQPEDLEFQEGDIILVLSKVNEEWLEGEKKGKVGIFPKVFVEDC | -0.574 ± 0.4
LKKGSQVEALFSYEATQPEDLEFQEGDIILVLSKVNEEWLEGEEKGKVGIFPKVFVEDC | -0.865 ± 0.41
LKKGSQVEALFSYEATQPEDLEFQEGDIILVLSKVNEEWLEGEFKGKVGIFPKVFVEDC | -0.741 ± 0.13
LKKGSQVEALFSYEATQPEDLEFQEGDIILVLSKVNEEWLEGEHKGKVGIFPKVFVEDC | -0.806 ± 0.19
LKKGSQVEALFSYEATQPEDLEFQEGDIILVLSKVNEEWLEGEDKGKVGIFPKVFVEDC | -0.557 ± 0.15
LKKGSQVEALFSYEATQPEDLEFQEGDIILVLSKVNEEWLEGEIKGKVGIFPKVFVEDC | -0.705 ± 0.14
LKKGSQVEALFSYEATQPEDLEFQEGDIILVLSKVNEEWLEGEGKGKVGIFPKVFVEDC | -0.383 ± 0.094
LKKGSQVEALFSYEATQPEDLEFQEGDIILVLSKVNEEWMEGECKGKVGIFPKVFVEDC | -0.042 ± 0.19
LKKGSQVEALFSYEATQPEDLEFQEGDIILVLSKVNEEWEEGECKGKVGIFPKVFVEDC | -0.742 ± 0.47
LKKGSQVEALFSYEATQPEDLEFQEGDIILVLSKVNEEWYEGECKGKVGIFPKVFVEDC | 0.528 ± 0.077
LKKGSQVEALFSYEATQPEDLEFQEGDIILVLSKVNEEWREGECKGKVGIFPKVFVEDC | -0.217 ± 0.12
LKKGSQVEALFSYEATQPEDLEFQEGDIILVLSKVNEEWCEGECKGKVGIFPKVFVEDC | -0.614 ± 0.17
LKKGSQVEALFSYEATQPEDLEFQEGDIILVLSKVNEEWDEGECKGKVGIFPKVFVEDC | -0.544 ± 0.17
LKKGSQVEALFSYEATQPEDLEFQEGDIILVLSKVNEEWQEGECKGKVGIFPKVFVEDC | -0.58 ± 0.4
LKKGSQVEALFSYEATQPEDLEFQEGDIILVLSKVNEEWIEGECKGKVGIFPKVFVEDC | -0.183 ± 0.12
LKKGSQVEALFSYEATQPEDLEFQEGDIILVLSKVNEEWSEGECKGKVGIFPKVFVEDC | -0.729 ± 0.15
LKKGSQVEALFSYEATQPEDLEFQEGDIILVLSKVNEEWTEGECKGKVGIFPKVFVEDC | -0.749 ± 0.21

Variant | abundance fitness
LKKGSQVEALFSYEATQPEDLEFQEGDIILVLSKVNEEWAEGECKGKVGIFPKVFVEDC | -0.731 ± 0.18
LKKGSQVEALFSYEATQPEDLEFQEGDIILVLSKVNEEWKEGECKGKVGIFPKVFVEDC | -0.918 ± 0.33
LKKGSQVEALFSYEATQPEDLEFQEGDIILVLSKVNEEWHEGECKGKVGIFPKVFVEDC | -0.764 ± 0.25
LKKGSQVEALFSYEATQPEDLEFQEGDIILVLSKVNEEWNEGECKGKVGIFPKVFVEDC | -0.945 ± 0.21
LKKGSQVEALFSYEATQPEDLEFQEGDIILVLSKVNEEWPEGECKGKVGIFPKVFVEDC | -0.02 ± 0.23
LKKGSQVEALFSYEATQPEDLEFQEGDIILVLSKVNEEWFEGECKGKVGIFPKVFVEDC | -0.548 ± 0.14
LKKGSQVEALFSYEATQPEDLEFQEGDIILVLSKVNEEWVEGECKGKVGIFPKVFVEDC | -0.451 ± 0.12
LKKGSQVEALFSYEATQPEDLEFQEGDIILVLSKVNEEWWEGECKGKVGIFPKVFVEDC | -0.277 ± 0.2
LKKGSQVEALFSYEATQPEDLEFQEGDIILVLSKVNEEFLEGECKGKVGIFPKVFVEDC | -0.49 ± 0.11
LKKGSQVEALFSYEATQPEDLEFQEGDIILVLSKVNEEMLEGECKGKVGIFPKVFVEDC | 0.036 ± 0.26
LKKGSQVEALFSYEATQPEDLEFQEGDIILVLSKVNEERLEGECKGKVGIFPKVFVEDC | -0.893 ± 0.16
LKKGSQVEALFSYEATQPEDLEFQEGDIILVLSKVNEETLEGECKGKVGIFPKVFVEDC | -0.735 ± 0.19
LKKGSQVEALFSYEATQPEDLEFQEGDIILVLSKVNEEILEGECKGKVGIFPKVFVEDC | -0.109 ± 0.091
LKKGSQVEALFSYEATQPEDLEFQEGDIILVLSKVNEESLEGECKGKVGIFPKVFVEDC | -0.666 ± 0.13
LKKGSQVEALFSYEATQPEDLEFQEGDIILVLSKVNEEHLEGECKGKVGIFPKVFVEDC | -1.03 ± 0.24
LKKGSQVEALFSYEATQPEDLEFQEGDIILVLSKVNEEQLEGECKGKVGIFPKVFVEDC | -0.864 ± 0.45
LKKGSQVEALFSYEATQPEDLEFQEGDIILVLSKVNEELLEGECKGKVGIFPKVFVEDC | -0.8 ± 0.14
LKKGSQVEALFSYEATQPEDLEFQEGDIILVLSKVNEEPLEGECKGKVGIFPKVFVEDC | -0.598 ± 0.2
LKKGSQVEALFSYEATQPEDLEFQEGDIILVLSKVNEEGLEGECKGKVGIFPKVFVEDC | -0.414 ± 0.1
LKKGSQVEALFSYEATQPEDLEFQEGDIILVLSKVNEEYLEGECKGKVGIFPKVFVEDC | -0.321 ± 0.1
LKKGSQVEALFSYEATQPEDLEFQEGDIILVLSKVNEENLEGECKGKVGIFPKVFVEDC | -0.196 ± 0.11
